# Data published in patent US20160244525A1.
# Substitutions are numbered along the chain they refer to.
# B1: 2B.1.3.10 (antibody, human IgG1, kappa, V domains shown)
# VH: EVQLVESGGGLVQPGGSLRLSCAASGFPFTSQGISWVRQAPGKGLEWVGRTHLGDGSTNYADSVKGRFTISADTSKNTAYLQMNSLRAEDTAVYYCARTYGIYDTYDKYTEYVMDYWGQGTLVTVSS
# VL: DIQMTQSPSSLSASVGDRVTITCRASQDVDTSLAWYKQKPGKAPKLLIYSASFLYSGVPSRFSGSGSGTDFTLTISSLQPEDFATYYCQQSTGHPQTFGQGTKVEIKR
# B2: 2B.1.3.12 (antibody, human IgG1, kappa, V domains shown)
# VH: B1 VH with Q32T, K108M
# VL: B1 VL
# B3: 2B.1.20 (antibody, human IgG1, kappa, V domains shown)
# VH: B1 VH with P28T, Q32T, T51L, H52D, L53V, G54F, D55W, T105L, D107V, K108D
# VL: B1 VL
# B4: 2B.1.72 (antibody, human IgG1, kappa, V domains shown)
# VH: B1 VH with P28T, Q32T, T51V, L53P, G54F, D55E, T105L, D107V, K108D
# VL: B1 VL
# B5: 2B.1.95 (antibody, human IgG1, kappa, V domains shown)
# VH: B1 VH with P28T, Q32T, T51L, H52I, L53F, G54F, D55T, T105L, D107V, K108D
# VL: B1 VL
# B6: 2B.1.33 (antibody, human IgG1, kappa, V domains shown)
# VH: B1 VH with P28T, Q32T, T51Y, L53P, G54F, D55H, T105L, D107V, K108D
# VL: B1 VL
# B7: 2B.1.93 (antibody, human IgG1, kappa, V domains shown)
# VH: B1 VH with P28T, Q32T, T51I, H52D, L53N, G54Y, D55W, T105L, D107V, K108D
# VL: B1 VL
# B8: 2B.1.73 (antibody, human IgG1, kappa, V domains shown)
# VH: B1 VH with P28T, Q32T, T51M, H52I, L53F, G54Y, D55N, T105L, D107V, K108D
# VL: B1 VL
# B9: 2B.1.50 (antibody, human IgG1, kappa, V domains shown)
# VH: B1 VH with P28T, Q32T, T51L, H52N, L53F, G54Y, D55S, T105L, D107V, K108D
# VL: B1 VL
# B10: 2B.1.30 (antibody, human IgG1, kappa, V domains shown)
# VH: B1 VH with P28T, Q32T, T51V, H52S, L53F, G54F, D55S, T105L, D107V, K108D
# VL: B1 VL
# B11: 2B.1.78 (antibody, human IgG1, kappa, V domains shown)
# VH: B1 VH with P28T, Q32T, T51L, H52S, L53F, G54Y, D55S, T105L, D107V, K108D
# VL: B1 VL
# B12: 2B.1.1 (antibody, human IgG1, kappa, V domains shown)
# VH: B1 VH with P28T, Q32T, T51Y, H52W, L53A, G54W, T105L, D107V, K108D
# VL: B1 VL
# B13: 2B.1.82 (antibody, human IgG1, kappa, V domains shown)
# VH: B1 VH with P28T, Q32T, T51I, H52N, L53F, G54F, D55S, T105L, D107V, K108D
# VL: B1 VL
# B14: 2B.1.65 (antibody, human IgG1, kappa, V domains shown)
# VH: B1 VH with P28T, Q32T, T51Y, H52N, L53A, G54Y, D55T, T105L, D107V, K108D
# VL: B1 VL
# B15: 2B.1.49 (antibody, human IgG1, kappa, V domains shown)
# VH: B1 VH with P28T, Q32T, T51L, H52S, L53F, G54F, D55S, T105L, D107V, K108D
# VL: B1 VL
# B16: 2B.1.14 (antibody, human IgG1, kappa, V domains shown)
# VH: B1 VH with P28T, Q32T, T51L, H52W, L53Y, G54F, T105L, D107V, K108D
# VL: B1 VL
# B17: 2B.1.52 (antibody, human IgG1, kappa, V domains shown)
# VH: B1 VH with P28T, Q32T, T51F, H52S, T105L, D107V, K108D
# VL: B1 VL
# B18: 2B.1.35 (antibody, human IgG1, kappa, V domains shown)
# VH: B1 VH with P28T, Q32T, T51W, L53P, G54F, D55R, T105L, D107V, K108D
# VL: B1 VL
# B19: 2B.1.71 (antibody, human IgG1, kappa, V domains shown)
# VH: B1 VH with P28T, Q32T, T51V, H52W, L53M, G54F, T105L, D107V, K108D
# VL: B1 VL
# B20: 2B.1.9 (antibody, human IgG1, kappa, V domains shown)
# VH: B1 VH with P28T, Q32T, T51Y, L53P, G54Y, D55L, T105L, D107V, K108D
# VL: B1 VL
# B21: 2B.1.74 (antibody, human IgG1, kappa, V domains shown)
# VH: B1 VH with P28T, Q32T, T51Y, L53P, G54F, D55R, T105L, D107V, K108D
# VL: B1 VL
# B22: 2B.1.28 (antibody, human IgG1, kappa, V domains shown)
# VH: B1 VH with P28T, Q32T, T51F, H52W, L53A, G54W, D55S, T105L, D107V, K108D
# VL: B1 VL
# B23: 2B.1.44 (antibody, human IgG1, kappa, V domains shown)
# VH: B1 VH with P28T, Q32T, T51W, H52W, L53S, G54W, D55G, T105L, D107V, K108D
# VL: B1 VL
# B24: 2B.1.94 (antibody, human IgG1, kappa, V domains shown)
# VH: B1 VH with P28T, Q32T, T51L, H52V, L53F, G54F, D55S, T105L, D107V, K108D
# VL: B1 VL
# B25: 2B.1.25 (antibody, human IgG1, kappa, V domains shown)
# VH: B1 VH with P28T, Q32T, T51W, L53P, G54W, D55M, T105L, D107V, K108D
# VL: B1 VL
# B26: 2B.1.55 (antibody, human IgG1, kappa, V domains shown)
# VH: B1 VH with P28T, Q32T, T51V, H52D, L53V, G54F, D55W, T105L, D107V, K108D
# VL: B1 VL
# B27: 2B.1.88 (antibody, human IgG1, kappa, V domains shown)
# VH: B1 VH with P28T, Q32T, T51I, H52W, L53M, G54F, D55T, T105L, D107V, K108D
# VL: B1 VL
# B28: 2B.1.32 (antibody, human IgG1, kappa, V domains shown)
# VH: B1 VH with P28T, Q32T, T51W, H52V, L53G, G54F, D55T, T105L, D107V, K108D
# VL: B1 VL
# B29: 2B.1.81 (antibody, human IgG1, kappa, V domains shown)
# VH: B1 VH with P28T, Q32T, T51V, H52N, L53N, G54F, D55Y, T105L, D107V, K108D
# VL: B1 VL
# B30: 2B.1.80 (antibody, human IgG1, kappa, V domains shown)
# VH: B1 VH with P28T, Q32T, T51Y, H52W, L53A, G54F, D55S, T105L, D107V, K108D
# VL: B1 VL
# B31: 2B.1.86 (antibody, human IgG1, kappa, V domains shown)
# VH: B1 VH with P28T, Q32T, T51L, H52S, L53F, G54W, D55T, T105L, D107V, K108D
# VL: B1 VL
# B32: 2B.1.38 (antibody, human IgG1, kappa, V domains shown)
# VH: B1 VH with P28T, Q32T, T51F, H52W, L53A, G54Y, T105L, D107V, K108D
# VL: B1 VL
# B33: 2B.1.3.2 (antibody, human IgG1, kappa, V domains shown)
# VH: B1 VH with P28T, Q32T, K108N
# VL: B1 VL
# B34: 2B.1.3.6 (antibody, human IgG1, kappa, V domains shown)
# VH: B1 VH with P28T, Q32T, K108E
# VL: B1 VL
# B35: 2B.1.3.8 (antibody, human IgG1, kappa, V domains shown)
# VH: B1 VH with Q32L, T105I, D107E
# VL: B1 VL
# B36: 2B.1.3.4 (antibody, human IgG1, kappa, V domains shown)
# VH: B1 VH with P28T, Q32T, T105I, D107G, K108G
# VL: B1 VL
# Target: FGFR3-IIIb (human)
# Test: blocking ELISA: FGFR3-IIIb-Fc captured on an anti-human Fc plate, antibody titrated, FGF-1 (with heparin) is the blocked ligand, bound FGF-1 read as OD450
# Sequence of FGFR3-IIIb (human) (chain, as listed by the source limits assumed): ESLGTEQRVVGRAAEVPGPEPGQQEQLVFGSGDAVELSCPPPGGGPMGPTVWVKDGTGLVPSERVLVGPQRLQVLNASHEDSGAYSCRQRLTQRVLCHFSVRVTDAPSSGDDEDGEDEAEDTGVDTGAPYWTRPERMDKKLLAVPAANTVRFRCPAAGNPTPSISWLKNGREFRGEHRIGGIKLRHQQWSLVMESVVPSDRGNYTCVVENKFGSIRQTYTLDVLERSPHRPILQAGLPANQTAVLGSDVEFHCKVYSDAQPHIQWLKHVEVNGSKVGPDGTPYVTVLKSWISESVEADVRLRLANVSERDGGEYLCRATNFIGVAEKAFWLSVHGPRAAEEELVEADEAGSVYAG
row,IC50 (read off the curve) [nM],Binder
1,1 to 2,B1
2,1 to 2,B2

# Target: FGFR2-IIIb (human) (UniProt P21802)
# Test: SPR (Biacore T100), IgG captured by anti-human Fc, FGFR flowed
# Sequence of FGFR2-IIIb (human) (P21802 other isoform, or with tags, fused parts or gaps limits assumed): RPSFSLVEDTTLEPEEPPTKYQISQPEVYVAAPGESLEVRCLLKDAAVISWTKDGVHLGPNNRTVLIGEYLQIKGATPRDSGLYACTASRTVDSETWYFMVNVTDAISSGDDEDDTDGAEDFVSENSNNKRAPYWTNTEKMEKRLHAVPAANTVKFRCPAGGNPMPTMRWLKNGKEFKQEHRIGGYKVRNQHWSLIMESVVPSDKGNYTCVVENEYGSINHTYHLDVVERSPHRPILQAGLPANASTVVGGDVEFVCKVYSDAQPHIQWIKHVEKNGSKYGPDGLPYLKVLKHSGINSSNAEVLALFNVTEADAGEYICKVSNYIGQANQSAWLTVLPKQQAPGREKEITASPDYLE
row,Kd [nM],Binder
1,2.9,B1
2,1.2,B3
3,3.5,B4
4,1.8,B5
5,15,B6
6,5.1,B7
7,1.4,B8
8,2,B9
9,4.1,B10
10,3.2,B11
11,0.29,B12
12,4.9,B13
13,2.7,B14
14,1.3,B15
15,1.6,B16
16,3.9,B17

row,Kd [nM],Binder
1,9.4,B18
2,1.6,B19
3,3,B2
4,1.4,B20
5,1.4,B21
6,1.8,B22
7,3.6,B23
8,3.1,B24
9,2.3,B25
10,5.9,B26
11,0.64,B27
12,1.2,B28
13,2.1,B29
14,17,B30
15,1.3,B31
16,1.1,B32

# Target: FGFR3-IIIb (human)
# Test: as above
row,Kd [nM],Binder
1,0.11,B1
2,0.19,B5
3,0.09,B8
4,0.09,B12
5,0.5,B2
6,0.05,B27
7,0.06,B28

# Target: FGFR2-IIIb (human) (UniProt P21802)
# Test: SPR, IgG
row,Kd [nM],Binder
1,2.9,B1
2,6.6,B33
3,5.9,B34
4,1.4,B35
5,3,B2
6,5.8,B36

# Target: FGFR2-IIIb (human) (UniProt P21802)
# Test: blocking ELISA: FGFR2-IIIb-Fc captured on an anti-human Fc plate, antibody titrated, FGF-7 (with heparin) is the blocked ligand, bound FGF-7 read as OD450
row,IC50 (read off the curve) [nM],Binder
1,2,B1
2,2,B2

# Target: FGFR2-IIIb (human) (UniProt P21802)
# Test: SPR
row,Kd [nM],Binder
1,0.29,B12
2,3,B2

# Target: FGFR3-IIIb (human)
# Test: SPR
row,Kd [nM],Binder
1,0.5,B2
